Source: the RNAGym collection of RNA variant scans (doi:10.1073/pnas.2313332121)
This sample holds only a part of the variants without activity.

B1: TPR 5TU (parent)
chain: GGAUCUUCUCGAUCUAACAAAAAAGACAAAUCUGCCACAAAGCUUGAGAGCAUCUUCGGAUGCAGAGGCGGCAGCCUUCGGUGGCGCGAUAGCGCCAACGUUCUCAACUAUGACACGCAAAACGCGUGCUCCGUUGAAUGGAGUUUAUCAUG

Variants of: B1
Assay: polymerase ribozyme fitness, log enrichment relative to wild type (log ratio); higher = more active; in vitro selection for triplet polymerase activity
Outline: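 Only genotypes with ≥10 input reads and ≥1 read per output were kept after Illumina sequencing of input and output libraries. These libraries were PCR-built, transcribed mutants of each subunit of a heterodimeric triplet polymerase ribozyme, each put through one triplicate in vitro selection round with frozen incubation at −7 °C, gel excision of extended constructs, streptavidin-bead capture and RT-PCR. Fitness is a logarithmic ratio of genotype enrichment to wild-type enrichment, from inverse-variance-weighted replicate averages, with the logarithm in base 2.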

C35G G62A G68A C69G G71C C72A A73G G74C A91C C114U C132U and G34U G58A G59A C85U U101G A150G cannot be ordered by “polymerase ribozyme fitness (log ratio)” value: ≤ -4.2 for the first, ≤ -4.2 for the second.

Compared with C35G A91C C118G C123A, C35A C87U is higher in “polymerase ribozyme fitness (log ratio)” value: ≤ -4.2 for the first, -4.03 for the second.

Going from C35A G58U to C35A A66G C87U U127C, the “polymerase ribozyme fitness (log ratio)” value falls from -2.81 to ≤ -4.2.

Going from C35A G94A to C35A G94C, the “polymerase ribozyme fitness (log ratio)” value rises from -3.56 to -2.74.

Compared with C35A G42U G48A G68A A106C C116U A120U G141A, G34U C54U A66C A91U A121U is higher in “polymerase ribozyme fitness (log ratio)” value: ≤ -4.2 for the first, -4.11 for the second.

First: C35U A106U A142U
Second: C35G C54U A60U C85A
The “polymerase ribozyme fitness (log ratio)” value of the first is higher: -4.15 for the first, ≤ -4.2 for the second.

Going from C35U C36A U55G U127A to C35G C57U C85G U151A, the “polymerase ribozyme fitness (log ratio)” value falls from -3.9 to ≤ -4.2.

First: C35U C54A G84A U146C
Second: C35U A52C G81A G86U C95A
The “polymerase ribozyme fitness (log ratio)” value of the first is higher: -1 for the first, ≤ -4.2 for the second.

C35U C54G C57G C69U U82A A91U G92A A113G and C35A C43U C87A G128A cannot be ordered by “polymerase ribozyme fitness (log ratio)” value: ≤ -4.2 for the first, ≤ -4.2 for the second.

C35G G59A C85A A106G G126U and C35A C43U A49U A64G C76U C96A U101G C149U cannot be ordered by “polymerase ribozyme fitness (log ratio)” value: ≤ -4.2 for the first, ≤ -4.2 for the second.

C35A U44A G70C C76U C103G U145G and G34U C36G G59C U148C cannot be ordered by “polymerase ribozyme fitness (log ratio)” value: ≤ -4.2 for the first, ≤ -4.2 for the second.

C35A C76A C93A U148C and C35U A52C U55A C93U C149A cannot be ordered by “polymerase ribozyme fitness (log ratio)” value: ≤ -4.2 for the first, ≤ -4.2 for the second.

First: G34U C54U U78G G83A C108G
Second: C35G C85A C105G A113U
The “polymerase ribozyme fitness (log ratio)” value of the first is higher: -4.13 for the first, ≤ -4.2 for the second.

C35A C79A G83A C99A and C35G C85G U134A G136A cannot be ordered by “polymerase ribozyme fitness (log ratio)” value: ≤ -4.2 for the first, ≤ -4.2 for the second.

First: G34U G67A C76U C85A
Second: C35G C76A
The “polymerase ribozyme fitness (log ratio)” value of the first is lower: ≤ -4.2 for the first, -4.13 for the second.

Compared with C35G C76U, C35U C38G U56A is higher in “polymerase ribozyme fitness (log ratio)” value: -3.99 for the first, -1.43 for the second.

Going from C35A U146A to C35A A39G G141U, the “polymerase ribozyme fitness (log ratio)” value falls from -3.32 to ≤ -4.2.

First: C35A G81U A97U A98U
Second: C35U A49C C79A C87A A119U
The “polymerase ribozyme fitness (log ratio)” value of the first is higher: -3.76 for the first, ≤ -4.2 for the second.

C35A U90A C95U U102A and C35U C51U U55C C85A U101C C103A U144A cannot be ordered by “polymerase ribozyme fitness (log ratio)” value: ≤ -4.2 for the first, ≤ -4.2 for the second.

C35A C108G C116A A142U and C35U C76G A89U A97G cannot be ordered by “polymerase ribozyme fitness (log ratio)” value: ≤ -4.2 for the first, ≤ -4.2 for the second.

Compared with C35U C43G C93A C103G, C35A U56C U82A is higher in “polymerase ribozyme fitness (log ratio)” value: ≤ -4.2 for the first, -3.49 for the second.

C35A U44A C63U G70A G80C C87G and C35G G62C G67C C85G C131A A147U cannot be ordered by “polymerase ribozyme fitness (log ratio)” value: ≤ -4.2 for the first, ≤ -4.2 for the second.

Going from C35A C57U C93G U134A U139A to C35A C95A A107G G143U, the “polymerase ribozyme fitness (log ratio)” value rises from ≤ -4.2 to -3.95.

Going from C35A A49C U56C G71A C72U G92A A115C to C35G A47C C69G U77G U82C C103G G128U U130G U151C, the “polymerase ribozyme fitness (log ratio)” value falls from -3.21 to ≤ -4.2.

First: G34U C85A
Second: C35U A41G C96A U144A
The “polymerase ribozyme fitness (log ratio)” value of the first is lower: -3.91 for the first, -0.485 for the second.

Going from C35U C75A G86A A107G G140U to C35U A47C G80U C87U, the “polymerase ribozyme fitness (log ratio)” value rises from ≤ -4.2 to -3.9.

First: G34U C95G A115G C116U G140C U151A
Second: C35U A91G
The “polymerase ribozyme fitness (log ratio)” value of the first is lower: -4.19 for the first, -2.83 for the second.

Compared with C35A U61A C103G U104C C116U, C35U A49G A97G A119C is higher in “polymerase ribozyme fitness (log ratio)” value: ≤ -4.2 for the first, -2.09 for the second.

Going from C35A C76A C93U A113U U130G A147G to C35U A52G A60C A121U, the “polymerase ribozyme fitness (log ratio)” value rises from ≤ -4.2 to -3.29.

C35G U55G G81A A98G U102A and G34U C51A G84C cannot be ordered by “polymerase ribozyme fitness (log ratio)” value: ≤ -4.2 for the first, ≤ -4.2 for the second.

C35A C93G A98C C99U G141C and C35G A52U U53A U56A C93G C96U C105G G152A cannot be ordered by “polymerase ribozyme fitness (log ratio)” value: ≤ -4.2 for the first, ≤ -4.2 for the second.

First: G34U C75G G81U C87U A120U
Second: C35G A39C U82C C116U C125G G133A
The “polymerase ribozyme fitness (log ratio)” value of the first is higher: -3.98 for the first, ≤ -4.2 for the second.

C35G G83A A89C A142U and C35A U90A U111C A137C cannot be ordered by “polymerase ribozyme fitness (log ratio)” value: ≤ -4.2 for the first, ≤ -4.2 for the second.

C35G G84A U104G U109G G140U and C35U A73U G88U C108G cannot be ordered by “polymerase ribozyme fitness (log ratio)” value: ≤ -4.2 for the first, ≤ -4.2 for the second.

C35U C54G A66U C79A G80A G83C G84A C96U U101G U148C and C35G G48U G70A G92C C96G U146A cannot be ordered by “polymerase ribozyme fitness (log ratio)” value: ≤ -4.2 for the first, ≤ -4.2 for the second.

First: C35G G84A C93G U101G
Second: C35G A115G
The “polymerase ribozyme fitness (log ratio)” value of the first is lower: ≤ -4.2 for the first, -3.92 for the second.

C35U A73U C75G C76G U90C and G34U G83U A115G U145G cannot be ordered by “polymerase ribozyme fitness (log ratio)” value: ≤ -4.2 for the first, ≤ -4.2 for the second.

Compared with C35G G141C, C35U C75G U127C is lower in “polymerase ribozyme fitness (log ratio)” value: -3.66 for the first, ≤ -4.2 for the second.

Going from C35G U55G C85G U144A to C35U A52C C85U G117U, the “polymerase ribozyme fitness (log ratio)” value rises from ≤ -4.2 to -2.29.

First: C35A U77C G83A A106C G126A U134G
Second: C35U A73G
The “polymerase ribozyme fitness (log ratio)” value of the first is lower: ≤ -4.2 for the first, -0.161 for the second.

C35A G65U G83C C85A G124A and C35A C76U G81A C96U C103A cannot be ordered by “polymerase ribozyme fitness (log ratio)” value: ≤ -4.2 for the first, ≤ -4.2 for the second.

Compared with C35A C79G U151A, C35G G68C C125A is higher in “polymerase ribozyme fitness (log ratio)” value: ≤ -4.2 for the first, -4.18 for the second.
